Target: T1, GST-SAP30L (human, UniProt Q9HAJ7 1-183)
T1 sequence (looked up): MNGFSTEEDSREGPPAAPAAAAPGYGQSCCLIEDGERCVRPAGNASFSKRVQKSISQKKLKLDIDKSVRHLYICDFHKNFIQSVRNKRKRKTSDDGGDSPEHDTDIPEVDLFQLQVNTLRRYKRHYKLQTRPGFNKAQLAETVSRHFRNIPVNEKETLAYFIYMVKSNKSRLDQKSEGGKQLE
Assay: pull-down

fold change of interaction against full-length SAP30L: > 2 fold
B1: in vitro translated N-terminally deleted SAP30L (SAP30L 61–183) (domain or fragment, human, UniProt Q9HAJ7 61-183, looked up)
chain: KLDIDKSVRHLYICDFHKNFIQSVRNKRKRKTSDDGGDSPEHDTDIPEVDLFQLQVNTLRRYKRHYKLQTRPGFNKAQLAETVSRHFRNIPVNEKETLAYFIYMVKSNKSRLDQKSEGGKQLE
modifications: 35S-methionine label

Source: paper PMC1500868 (Nucleic Acids Research, 2006)
